Experimental data taken from patent US20250026841A1 (AP BIOSCIENCES, published 2025).
Like-named read-outs stand apart in the source and are kept apart here.

T1: CD73, cell membrane-bound (expressed by MDA-MB-231 cells) (human, UniProt P21589 27-549)
T1 sequence (looked up): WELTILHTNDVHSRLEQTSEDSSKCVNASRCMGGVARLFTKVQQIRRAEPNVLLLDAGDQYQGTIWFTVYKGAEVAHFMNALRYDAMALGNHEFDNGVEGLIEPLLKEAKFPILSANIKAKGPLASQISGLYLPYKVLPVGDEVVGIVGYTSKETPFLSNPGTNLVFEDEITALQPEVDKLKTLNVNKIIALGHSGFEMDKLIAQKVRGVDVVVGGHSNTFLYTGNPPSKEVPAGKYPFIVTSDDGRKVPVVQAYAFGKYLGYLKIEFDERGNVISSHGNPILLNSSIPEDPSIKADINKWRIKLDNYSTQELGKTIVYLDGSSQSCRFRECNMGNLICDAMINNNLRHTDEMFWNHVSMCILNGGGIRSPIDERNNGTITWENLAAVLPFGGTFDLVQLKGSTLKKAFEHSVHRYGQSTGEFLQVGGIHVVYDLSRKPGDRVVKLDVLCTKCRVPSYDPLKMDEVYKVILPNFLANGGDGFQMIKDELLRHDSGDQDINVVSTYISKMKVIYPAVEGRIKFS

T2: soluble CD73 secreted by MDA-MB-231 cells (human, UniProt P21589 27-549, limits assumed)
T2 sequence (looked up): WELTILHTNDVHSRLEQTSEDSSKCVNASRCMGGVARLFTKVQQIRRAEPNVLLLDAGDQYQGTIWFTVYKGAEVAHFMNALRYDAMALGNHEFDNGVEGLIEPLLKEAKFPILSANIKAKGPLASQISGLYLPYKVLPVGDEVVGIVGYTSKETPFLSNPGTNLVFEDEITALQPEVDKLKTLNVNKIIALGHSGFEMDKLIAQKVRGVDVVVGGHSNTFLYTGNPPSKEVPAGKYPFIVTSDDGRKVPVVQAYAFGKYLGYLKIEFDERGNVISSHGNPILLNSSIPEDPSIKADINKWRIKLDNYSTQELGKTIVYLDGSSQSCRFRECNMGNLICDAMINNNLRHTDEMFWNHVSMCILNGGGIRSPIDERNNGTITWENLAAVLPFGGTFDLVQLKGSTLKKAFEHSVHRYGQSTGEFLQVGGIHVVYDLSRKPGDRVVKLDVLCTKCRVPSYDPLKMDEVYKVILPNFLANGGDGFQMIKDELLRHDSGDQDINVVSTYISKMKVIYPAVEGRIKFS

T3: his-tagged human CD73 (AcroBiosystems, Cat. No. CD3-H52H7) (human, UniProt P21589 27-547)
T3 construct: Bought protein; also called hCD73-His; human CD73 antigen; not shown: His tag
T3 sequence (looked up): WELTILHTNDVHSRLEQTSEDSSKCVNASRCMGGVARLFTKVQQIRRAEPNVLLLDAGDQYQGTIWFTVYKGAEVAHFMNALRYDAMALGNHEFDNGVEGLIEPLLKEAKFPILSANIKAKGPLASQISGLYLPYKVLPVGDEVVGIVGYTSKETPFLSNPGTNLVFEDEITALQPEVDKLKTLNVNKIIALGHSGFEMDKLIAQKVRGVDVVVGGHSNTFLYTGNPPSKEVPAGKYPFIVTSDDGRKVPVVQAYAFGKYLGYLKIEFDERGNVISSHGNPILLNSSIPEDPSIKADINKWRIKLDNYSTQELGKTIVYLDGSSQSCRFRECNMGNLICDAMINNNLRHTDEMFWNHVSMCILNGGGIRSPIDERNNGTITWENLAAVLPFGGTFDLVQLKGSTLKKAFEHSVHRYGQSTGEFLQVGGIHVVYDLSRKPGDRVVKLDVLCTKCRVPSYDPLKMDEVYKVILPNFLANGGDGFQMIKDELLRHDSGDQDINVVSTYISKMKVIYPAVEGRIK

T4: CD73 (antigen of the CD73 ELISA) (UniProt P21589 27-547, limits assumed)
T4 construct: the ELISA antigen is not described
T4 sequence (looked up): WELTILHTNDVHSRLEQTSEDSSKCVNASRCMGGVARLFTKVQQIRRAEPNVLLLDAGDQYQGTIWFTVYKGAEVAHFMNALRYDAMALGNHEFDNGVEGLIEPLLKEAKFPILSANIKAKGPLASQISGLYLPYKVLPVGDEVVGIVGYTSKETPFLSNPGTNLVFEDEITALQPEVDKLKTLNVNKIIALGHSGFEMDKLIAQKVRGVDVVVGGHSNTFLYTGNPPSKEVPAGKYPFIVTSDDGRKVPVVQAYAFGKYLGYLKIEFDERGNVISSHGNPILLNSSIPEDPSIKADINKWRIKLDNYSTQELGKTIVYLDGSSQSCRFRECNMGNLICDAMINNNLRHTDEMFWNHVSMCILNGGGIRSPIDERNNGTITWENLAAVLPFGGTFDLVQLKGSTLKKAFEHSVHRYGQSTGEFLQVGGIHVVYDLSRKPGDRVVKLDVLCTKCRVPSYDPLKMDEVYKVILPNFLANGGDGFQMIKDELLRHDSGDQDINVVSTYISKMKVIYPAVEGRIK

B1: anti-CD73 antibody clone 3-1-28 (antibody, human IgG1, lambda, N297A, V domains shown)
VH: QVQLVQSGAEVKKPGSSVKVSCKASGGTFSSYAISWVRQAPGQGLEWMGRIIPILGIANYAQKFQGRVTITADKSTSTAYMELSSLRSEDTAVYYCARDSPVHYYGSGSYYRDAFDIWGQGTMVTVSS
VL: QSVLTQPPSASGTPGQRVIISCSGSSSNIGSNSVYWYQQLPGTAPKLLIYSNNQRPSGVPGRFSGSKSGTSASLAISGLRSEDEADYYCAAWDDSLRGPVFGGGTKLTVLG
notes: also called CD73 #3-1-28; parental #3-1-28
B2: anti-CD73 #3-1-28-v1 (antibody, human IgG1, lambda, N297A, V domains shown)
VH: QVQLVQSGAEVKKPGSSVKVSCKASGGTFSSYAISWVRQAPGQGLEWMGRIIPILGIANYAQKFQGRVTITADKSTSTAYMELSSLRSEDTAVYYCARDSPVHYYGSGSYYRDAFDIWGQGTMVTVSS
VL: QSVLTQPPSASGTPGQRVIISCSGSSSNIGSNSVYWYQQLPGTAPKLLIYANNERPSGVPGRFSGSKSGTSASLAISGLRSEDEADYYCAAWDDSLRGPVFGGGTKLTVLG
notes: engineered IgG1 constant region; also called #1919-003; anti-CD73 #3-1-28 (S51A Q54E)
B3: anti-CD73 #3-1-28-v2 (antibody, human IgG1, lambda, N297A, V domains shown)
VH: QVQLVQSGAEVKKPGSSVKVSCKASGGTFSSYAISWVRQAPGQGLEWMGRIIPILGIANYAQKFQGRVTITADKSTSTAYMELSSLRSEDTAVYYCARDSPVHYYGDGHYYRDAFDIWGQGTMVTVSS
VL: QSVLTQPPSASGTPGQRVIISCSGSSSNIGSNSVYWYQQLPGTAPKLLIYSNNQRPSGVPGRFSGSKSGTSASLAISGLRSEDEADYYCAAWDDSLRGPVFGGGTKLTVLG
notes: also called #1911-022; anti-CD73 #3-1-28 (S107D S109H)
B4: anti-CD73 #3-1-28-v3 (antibody, human IgG1, lambda, N297A, V domains shown)
VH: QVQLVQSGAEVKKPGSSVKVSCKASGGTFSSYAISWVRQAPGQGLEWMGRIIPILGIANYAQKFQGRVTITADKSTSTAYMELSSLRSEDTAVYYCARDSPVHYYGDGTYYRDSFDIWGQGTMVTVSS
VL: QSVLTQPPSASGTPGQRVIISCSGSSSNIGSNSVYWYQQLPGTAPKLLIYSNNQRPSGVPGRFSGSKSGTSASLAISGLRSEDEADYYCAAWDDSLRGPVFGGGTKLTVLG
notes: also called #1911-030; anti-CD73 #3-1-28 (S107D S109T A114S)
B5: CR3-1-37 (antibody, IgG1, V domains shown)
VH: QVQLVQSGAEVKRPGSSVKVSCKASGGTFSSYAISWVRQAPGQGLEWMGGIIPIFGTANYAQKFQGRVTITADESTSTAYMELSSLRSEDTAVYYCARGVSYYYGMHVWGQGTTVTVSS
VL: SYVLTQPPSVSVTPGKTARIACGGNNLESKIVSWYQQKPGQAPVLVIFYDTDRPSGISERFSGSNSGNTATLTISRVEAGDEADYYCQVWDSNSDHVIFGGGTKLTVLG
notes: also called anti-CD73 antibody clone 3-1-37
B6: anti-CD73 antibody clone 3-4 (antibody, V domains shown)
VH: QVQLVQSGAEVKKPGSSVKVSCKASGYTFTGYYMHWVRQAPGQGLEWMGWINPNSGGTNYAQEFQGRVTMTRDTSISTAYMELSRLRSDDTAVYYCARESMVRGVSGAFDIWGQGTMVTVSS
VL: QSALTQPASVSGSPGQSITISCTGTSSDVGSYNLVSWYQQHPGKAPKLMIYEGSKRPSGVSNRFSGSKSGNTASLTISGLQAEDEADYYCCSYAGSSGWDIGTGTKVTVLG
notes: also called CD73 #3-4; CR3-4
B7: CR3-16 (antibody, IgG1, V domains shown)
VH: QVQLVQSGAEVKKPGASVKVSCKASGYTFTDFYIHWVRQAPGQGLEWMGWINPYSGSTNYPQKFQGRVTMTRDTSISTAYMDLSSLTSDDTAVYLCVRGRWFDFDYWGQGTTVTVSS
VL: QSALTQPPSVSGSPGQSITISCTGTSSDVGTYNFVSWYQQHPGKVPKLIIYDVSNRPSGVSIRFSGSKSGNTASLTISGLQAEDEADYYCSSFRSGSTYVFGTGTRVTVLG
notes: also called anti-CD73 antibody clone 3-16
B8: anti-p95HER2 antibody clone R4-11 (antibody, human IgG1, kappa, V domains shown)
VH: QITLKESGPTLVKPTQTLTLTCTFSGFSLSTSGVGVGWIRQPPGKALEWLALIYWDDDKRYSPSLKSRLTITKDTSKNQVVLTMTNMDPVDTATYYCAHAHPFSGSYNFWGQGTLVTVSS
VL: DIVMTQSPDSLAVSLGERATINCKSSQSVLFSSNNKDYLAWYQQRPGQPPKLLIHWASTREPGVPDRFSGSGSGTDFTLTISSLQAEDVAVYYCLQSYSNPPTFGQGTKVEIKR
notes: also called p95HER2 #R4-11; #R4-11 mAb

Assays:
[1] = molecular target: T1, CD73, cell membrane-bound (expressed by …); assay: cell-based or functional assay
[2] = molecular target: T2, soluble CD73 secreted by MDA-MB-231 …; assay: cell-based or functional assay
[3] = molecular target: T3, his-tagged human CD73 (AcroBiosystems, …); assay: BLI (Octet), antibody on AHC sensor, hCD73-His 2-fold from 30 nM, 7 points
Experimental: (§1) The affinity of anti-CD73 mAbs and bsAbs were determined by biolayer interferometry analysis (ForteBIO, USA). In this method, anti-CD73 antibodies were loaded at 5 μg/mL on AHC (Anti-Human IgG Fc Capture, ForteBIO, Cat. No. 18-5060) for signal reach to approximate 0.5 nm. Sensors then were exposed to his-tagged human CD73 (AcroBiosystems, Cat. No. CD3-H52H7)-containing solutions that 2-fold serial diluted from the top concentration 30 nM for total 7 points. Measurements were performed as follows: 1 minute baseline in kinetic buffer, 5 minutes association in hCD73-His-containing solutions, and 5 minutes dissociation into kinetic buffer. The kinetic parameters were calculated and produced by Octet Data Acquisition and Analysis Software.

[4] = molecular target: T5, mouse Fc tagged human CD137 protein (AcroBiosystems, Cat #41B-H5256) (human, UniProt Q07011 24-186); assay: BLI (Octet), hCD73-His on HIS1K sensor, antibody 100 nM, then CD137-mFc 100 nM
T5 construct: extracellular domain; Bought protein; also called CD137 extracellular domain fused with mouse Fc tag recombinant protein; human CD137 antigen
Experimental: The binding activities of the AP601 was determined by ForteBIO® (Menlo Park, Calif.) biosensor analysis. In this method, the His tagged human CD73 protein (AcroBiosystems, Cat. No. CD3-H52H7) were loaded onto HIS1K (Anti-Penta-HIS) biosensor (Cat. No. 18-5120) at 5 μg/mL for 5 minutes. Sensors then were exposed to antibody samples at 100 nM for 5 minutes follow by associating with the mouse Fc tagged human CD137 protein (AcroBiosystems, Cat. No. 41B-H5256) at 100 nM for 5 minutes. The binding chart were produced by Octet Data Acquisition and Analysis Software.

[5] = molecular target: T3, his-tagged human CD73 (AcroBiosystems, …); assay: biolayer interferometry; antibody captured on AHC sensor, hCD73-His as analyte
Experimental: as §1

[6] = molecular target: T1, CD73, cell membrane-bound (expressed by …); assay: flow cytometry, antibody 4 µg/ml on MDA-MB-231 cells, A488 anti-human IgG
Experimental: As illustrated in FIG. 15 the binding activity of anti-CD73 antibody leads was assessed by flow cytometer. MDA-MB-231 cells (1×10^5 cells) were surface stained with anti-CD73 antibody (4 μg/ml) for 30 minutes, then incubated with A488-conjugated anti-human IgG secondary antibody for 15 minutes on ice. Cells were analyzed by flow cytometer, and A488 fluorescence intensity was shown by histograms (left) and number (right table). As illustrated in FIG. 16 the blockade of CD73 enzymatic activity by anti-CD73 antibody leads was assessed. The enzymatic activity of CD73 expressed by MDA-MB-231 on the cell surface was blocked by anti-CD73 antibody leads.

[7] = molecular target: T4, CD73 (antigen of the CD73 ELISA); assay: phage ELISA on coated CD73-flag-HIS; X-flag-HIS control bars not seen above the axis
[8] = molecular target: T4, CD73 (antigen of the CD73 ELISA); assay: as above; remark: listed apart in the source
[9] = molecular target: T5, mouse Fc tagged human CD137 protein …; assay: BLI (Octet), biotinylated p95 peptide on SA sensor, antibody 100 nM, then CD137-mFc 100 nM
Experimental: The binding activities of anti-p95HER2-CD137 bispecific antibody was determined by ForteBIO® (Menlo Park, Calif.) biosensor analysis. In this method, the custom synthesis biotinylated Her2 p95 peptide (GenScript) was loaded onto SA (Streptavidin, ForteBIO, Cat #18-5019) biosensor at 50 μg/mL for 5 minutes. Sensors then were exposed to antibody samples at 100 nM for 5 minutes follow by associating with the mouse Fc tagged human CD137 protein (AcroBiosystems, Cat #41B-H5256) at 100 nM for 5 minutes. The binding chart were produced by Octet Data Acquisition and Analysis Software.

Binder	IC50, inhibition of cell membrane-bound CD73 enzyme (AMP-Glo, MDA-MB-231 cells) [1] [nM]	IC50, inhibition of soluble CD73 enzyme (AMP-Glo, MDA-MB-231 cultured medium) [2] [nM]	Kd [3] [nM]	fold improvement of binding affinity against parental #3-1-28 [5] [fold]	binding result [6]	also measured
B1	0.49	1.48	1.04			binding result [4]: no binding (tested: 100 nM)
B2	0.213	0.187	0.344	~2		
B3	0.245	0.273	0.523	~2		
B4		0.241	0.553	~2		
B5					binds	binding result [7]: binds
B6					binds	binding result [8]: binds
B7					binds	binding result [8]: binds
B8						binding result [9]: no binding (tested: 100 nM)
